According to PMC7065454 (Molecular cell, 2020):
Where a chain is given by its changes, count along the chain named. In names and notes the source's numbering stands. Several values for one entry are separate records, joined by “and”; a condition that tells them apart may be missing. Equal entries are not always repeated. Where two headings read alike, the source gives them in different places.

Key:
Vm NucC = biological target: T1, Vm NucC (Vibrio metoecus, UniProt P0DUD6); assay: plasmid digestion assay, weak activation; assay type: biochemical
T1 sequence (P0DUD6 1-245): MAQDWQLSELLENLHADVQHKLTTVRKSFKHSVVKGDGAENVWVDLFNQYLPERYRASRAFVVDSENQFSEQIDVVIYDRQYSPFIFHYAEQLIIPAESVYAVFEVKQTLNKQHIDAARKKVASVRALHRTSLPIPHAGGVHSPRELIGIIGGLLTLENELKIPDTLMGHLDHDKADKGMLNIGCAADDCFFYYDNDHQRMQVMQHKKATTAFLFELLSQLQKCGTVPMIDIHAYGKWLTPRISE

Ec NucC [1] = biological target: T2, Ec NucC (Escherichia coli, UniProt D7Y2H5); assay: ITC; assay type: binding
Ec NucC [2] = biological target: T2, Ec NucC; assay: ITC; assay type: binding; remark: listed apart in the source
Ec NucC [3] = biological target: T2, Ec NucC; assay: ITC; assay type: binding; remark: listed apart in the source
Pa NucC = Pa NucC (Pseudomonas aeruginosa, UniProt P0DTF8, D73N); assay: co-crystal structure at […] Å; assay type: binding
SEC-MALS [4] = biological target: the molecule itself; assay: SEC-MALS
SEC-MALS [5] = biological target: the molecule itself; assay: SEC-MALS; remark: listed apart in the source
crystal structure = biological target: the molecule itself; assay: crystal structure

Molecule: Nc1nc2c(ncn2[C@@H]2O[C@@H]3COP(=O)(O)O[C@H]4[C@@H](O)[C@H](n5cnc6c(N)ncnc65)O[C@@H]4COP(=O)(O)O[C@H]4[C@@H](O)[C@H](n5cnc6c(N)ncnc65)O[C@@H]4COP(=O)(O)O[C@H]3[C@H]2O)c(=O)[nH]1 [cAAG]
- plasmid digestion assay, weak activation (Vm NucC): weakly activated by both cAA and cAAG

Molecule: Nc1ncnc2c1ncn2[C@@H]1O[C@H](COP(=O)(O)O[C@H]2[C@@H](O)[C@H](n3cnc4c(N)ncnc43)O[C@@H]2COP(=O)(O)O)[C@@H](O)[C@H]1O [5′-pApA]
- Kd (Ec NucC [1]): 4400 nM

Molecule: Nc1ncnc2c1ncn2[C@@H]1O[C@@H]2COP(=O)(O)O[C@H]3[C@@H](O)[C@H](n4cnc5c(N)ncnc54)O[C@@H]3COP(=O)(O)O[C@H]2[C@H]1O [3′,3′ cyclic di-AMP]
- Kd (Ec NucC [2]): 2600 nM

Molecule: Nc1ncnc2c1ncn2[C@@H]1O[C@@H]2COP(=O)(O)O[C@H]3[C@@H](O)[C@H](n4cnc5c(N)ncnc54)O[C@@H]3COP(=O)(O)O[C@H]3[C@@H](O)[C@H](n4cnc5c(N)ncnc54)O[C@@H]3COP(=O)(O)O[C@H]2[C@H]1O [cAAA]
- Kd (Ec NucC [3]): 700 nM
- co-crystal structure at 1.45 Å; SEC-MALS hexamer assembly of Pa NucC (Pa NucC): We obtained crystals of P. aeruginosa ATCC27853 NucC D73N mutant bound to cAAA

Molecule: Nc1ncnc2c1ncn2[C@@H]1O[C@@H]2COP(=O)(O)O[C@H]3[C@@H](O)[C@H](n4cnc5c(N)ncnc54)O[C@@H]3COP(=O)(O)O[C@H]2[C@H]1O [cAA]
- plasmid digestion assay, weak activation (Vm NucC): weakly activated by both cAA and cAAG

B1: P. aeruginosa ATCC 27853 NucC (wild type) (enzyme)
chain: MSQWSLSQLLSSLHEDIQQRLSVVRKTFGHPGTKGDASENVWIDMLDTYLPKRYQAAKAHVVDSLGNFSQQIDVVVFDRQYSPFIFTYENETIIPAESVYAVFEAKQTADAGLVAYAQEKVASVRRLHRTSLPIPHAGGTYPAKPLIPILGGLLTFESEWSPALGPSMDKALNANLTEGRLDIGCVAAHGHFFYDQASGAYSYTNENKPATAFLFKLIAQLQFSGTVPMIDVEAYGQWLTK
- stoichiometry N (SEC-MALS [4]): 3
- stoichiometry N (SEC-MALS [5]): 6

B2: Vibrio metoecus sp. RC341 NucC (enzyme, UniProt P0DUD6 1-245, looked up)
chain: T1 sequence (P0DUD6 1-245)
- stoichiometry N (SEC-MALS [4]): 3 and 6

B3: E. coli MS115-1 NucC (wild type) (enzyme, UniProt D7Y2H5 1-241, looked up)
chain: MSDWSLSQLFASLHEDIQLRLGTARKAFQHPGAKGDASEGVWIEMLDTYLPKRYQAANAFVVDSLGNFSDQIDVVVFDRQYSPFIFKFNEQIIVPAESVYAVFEAKQSASADLVAYAQRKVASVRRLHRTSLPIPHAGGTYPAKPLIPILGGLLTFESDWSPALGMSFDKALNGDLSDGRLDMGCVASHGHFYFNNIDSKFNFEHGNKPATAFLFRLIAQLQFSGTVPMIDIDAYGKWLAN
- stoichiometry N (SEC-MALS [4]): 3
- stoichiometry N (crystal structure): 6

B4: Ec NucC W4A mutant with D73N (SEC-MALS sample) (enzyme, E. coli MS115-1, UniProt D7Y2H5 1-241, looked up)
chain: B3 chain with W4A, D73N
- binding result (SEC-MALS [5]): binds

B5: Ec NucC L19D mutant with D73N (SEC-MALS sample) (enzyme, E. coli MS115-1, UniProt D7Y2H5 1-241, looked up)
chain: B3 chain with L19D, D73N
- stoichiometry N (SEC-MALS [5]): 3

B6: Ec NucC L19A mutant with D73N (SEC-MALS sample) (enzyme, E. coli MS115-1, UniProt D7Y2H5 1-241, looked up)
chain: B3 chain with L19A, D73N
- binding result (SEC-MALS [5]): binds
